Assay [1] concerns the target T1, soluble KDR extracellular domain (ECD) (Calbiochem) (human, UniProt P35968 20-764).
T1 construct: extracellular domain; Bought protein; also called KDR-ECD; VEGF Receptor 2 D1-7, Cat. #676490
The experiment in a line: Limited Antigen ELISA, KDR coat 25 ng/mL, supernatant 1:25. As to the method: (§1) Samples containing one concentration of antibody (Ab) (1:25 dilution) were incubated overnight to allow Ab binding to approach equilibrium. The low antigen concentration limited the effect of antibody concentration, allowing ranking of the antibodies based on their relative affinity.
Background: In an ELISA, binding on a coated surface is turned into a signal by an enzyme label.

For assay [2], the target named is T1, soluble KDR extracellular domain (ECD) …. In words: High Antigen ELISA, KDR coat 500 ng/mL, supernatant 1:675. As to the method: (§2) ELISA plates were coated with a greater amount of KDR (at 500 ng/mL) in comparison with the Limited Antigen Quantitation assay described below. Sample containing antibody (Ab) was titrated on the KDR-coated ELISA plates and was incubated overnight at 4° C. to allow Ab binding to approach equilibrium. Titration of Ab in sample covered a dilution range of 1:25 to 1:18,225. A standard curve of KDR-specific antibody of known concentration was used to define the linear range of the assay. Data within the linear range were used to derive the relative concentration of KDR-specific Ab in each titrated sample. The high KDR concentration and the overnight incubation limited the effect of Ab affinity, allowing quantitation of the relative amount of KDR-specific Ab present in each sample.

Assay [3] deals with KDR endogenously expressed on human umbilical vein endothelial cells (HUVEC) (human, UniProt P35968 20-1356). The experiment in a line: cell-based or functional assay.
KDR endogenously expressed on human umbilical vein endothelial cells (HUVEC), sequence (P35968 20-1356): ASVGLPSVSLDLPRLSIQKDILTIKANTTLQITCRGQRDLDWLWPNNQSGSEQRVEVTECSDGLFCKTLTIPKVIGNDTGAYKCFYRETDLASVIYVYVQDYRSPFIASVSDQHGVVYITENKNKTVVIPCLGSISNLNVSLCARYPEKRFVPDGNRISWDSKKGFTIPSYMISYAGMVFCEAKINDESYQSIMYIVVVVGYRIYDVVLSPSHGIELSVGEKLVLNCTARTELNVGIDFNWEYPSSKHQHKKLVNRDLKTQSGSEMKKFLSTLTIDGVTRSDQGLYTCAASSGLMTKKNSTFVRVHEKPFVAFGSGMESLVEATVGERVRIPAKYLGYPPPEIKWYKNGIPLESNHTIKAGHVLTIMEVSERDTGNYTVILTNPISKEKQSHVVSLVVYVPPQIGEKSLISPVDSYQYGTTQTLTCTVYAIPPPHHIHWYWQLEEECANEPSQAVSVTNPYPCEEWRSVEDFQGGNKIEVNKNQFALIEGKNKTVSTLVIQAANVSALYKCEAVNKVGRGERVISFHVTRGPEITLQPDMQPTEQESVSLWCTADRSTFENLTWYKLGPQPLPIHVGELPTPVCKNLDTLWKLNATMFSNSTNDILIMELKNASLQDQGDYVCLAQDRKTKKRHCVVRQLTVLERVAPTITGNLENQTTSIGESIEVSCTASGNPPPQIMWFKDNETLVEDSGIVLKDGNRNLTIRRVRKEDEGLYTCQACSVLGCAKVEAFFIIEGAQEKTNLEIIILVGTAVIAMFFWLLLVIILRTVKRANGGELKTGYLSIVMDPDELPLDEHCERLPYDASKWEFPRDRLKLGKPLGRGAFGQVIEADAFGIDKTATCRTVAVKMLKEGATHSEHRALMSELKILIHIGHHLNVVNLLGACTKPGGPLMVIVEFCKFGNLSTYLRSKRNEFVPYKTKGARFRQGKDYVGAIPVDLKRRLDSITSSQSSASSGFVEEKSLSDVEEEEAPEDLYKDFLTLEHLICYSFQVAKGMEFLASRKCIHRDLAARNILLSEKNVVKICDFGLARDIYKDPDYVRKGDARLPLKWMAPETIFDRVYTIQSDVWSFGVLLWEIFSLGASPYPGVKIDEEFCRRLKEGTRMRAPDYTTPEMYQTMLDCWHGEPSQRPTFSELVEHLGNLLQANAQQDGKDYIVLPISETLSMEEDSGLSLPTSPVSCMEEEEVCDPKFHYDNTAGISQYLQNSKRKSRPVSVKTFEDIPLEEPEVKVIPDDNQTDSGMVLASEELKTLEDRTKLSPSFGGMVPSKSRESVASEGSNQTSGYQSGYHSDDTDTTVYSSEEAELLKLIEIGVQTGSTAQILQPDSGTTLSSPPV
In assay [4] the target is T1, soluble KDR extracellular domain (ECD) …. The experiment in a line: High Antigen ELISA, KDR coat 500 ng/mL, supernatant 1:25. As to the method:
as §2

For assay [5] the target is unchanged. The experiment in a line: Limited Antigen ELISA, KDR coat 6.25 ng/mL, supernatant 1:25. As to the method: as §1
Assay [6] has the same target. In words: High Antigen ELISA, KDR coat 500 ng/mL, supernatant 1:18,225. As to the method:
as §2

The target is the same in assay [7]. The experiment in a line: Limited Antigen ELISA, KDR coat 12.5 ng/mL, supernatant 1:25. As to the method: as §1
Assay [8] shares this target. In words: Limited Antigen ELISA, KDR coat 50 ng/mL, supernatant 1:25. As to the method:
as §1

Assay [9] shares this target. In words: Limited Antigen ELISA, KDR coat 3.125 ng/mL, supernatant 1:25. As to the method:
as §1

Assay [10] has the same target. The experiment in a line: High Antigen ELISA, KDR coat 500 ng/mL, supernatant 1:2025. As to the method: as §2
Assay [11] has the same target. In words: High Antigen ELISA, KDR coat 500 ng/mL, supernatant 1:75. As to the method: as §2
The target is the same in assay [12]. In words: High Antigen ELISA, KDR coat 500 ng/mL, supernatant 1:225. As to the method:
as §2

The target is the same in assay [13]. The experiment in a line: High Antigen ELISA, KDR coat 500 ng/mL, supernatant 1:6075. As to the method:
as §2

Substitutions are numbered along the chain they refer to.

T1 sequence (P35968 20-764): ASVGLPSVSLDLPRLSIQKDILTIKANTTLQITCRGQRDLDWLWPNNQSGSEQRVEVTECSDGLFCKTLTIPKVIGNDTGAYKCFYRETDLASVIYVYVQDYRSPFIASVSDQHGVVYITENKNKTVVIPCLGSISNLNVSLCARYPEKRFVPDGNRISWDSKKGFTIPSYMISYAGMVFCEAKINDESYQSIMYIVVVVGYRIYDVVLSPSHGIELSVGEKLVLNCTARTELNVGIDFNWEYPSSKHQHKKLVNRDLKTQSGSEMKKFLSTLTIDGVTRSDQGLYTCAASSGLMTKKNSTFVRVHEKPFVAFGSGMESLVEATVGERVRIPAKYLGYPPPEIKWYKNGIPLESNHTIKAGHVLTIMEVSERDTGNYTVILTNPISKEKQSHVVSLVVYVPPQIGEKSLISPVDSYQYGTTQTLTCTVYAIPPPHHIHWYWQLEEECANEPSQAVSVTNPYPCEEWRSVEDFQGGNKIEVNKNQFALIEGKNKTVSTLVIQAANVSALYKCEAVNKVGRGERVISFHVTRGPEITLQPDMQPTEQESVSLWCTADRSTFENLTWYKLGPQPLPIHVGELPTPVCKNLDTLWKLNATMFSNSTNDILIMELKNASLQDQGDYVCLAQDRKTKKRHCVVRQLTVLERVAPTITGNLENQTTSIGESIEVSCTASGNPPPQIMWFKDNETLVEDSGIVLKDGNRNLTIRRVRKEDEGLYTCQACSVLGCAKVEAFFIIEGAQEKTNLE

B1: 1G6 (antibody, V domains shown)
VH: EVQLLESGGGLVQPGGSLRLSCAASGFTFSSYAMSWVRQAPGKGLEWVSAISGGGGNTYYADSVKGRFTISRDNSKNTLYLQMNSLRAEDTAVYYCSKVATDYWGQGTLVTVSS
VL: QPVLTQSSSASASLGSSVKLTCTLSSGHSSYIIAWHQQQPGKAPRYLMKLEGSGSYNKGSGVPDRFSGSSSGADRYLTISNLQFEDEADYYCETWDSYTVVFGGGTKLTVL
notes: Fully human mAb from XenoMouse hybridoma, tested as hybridoma supernatant
Take B1: the ELISA reading worked out at 0.65 in assay [1]; 2.24 in [2]; 6 in [4]; 0.2 in assay [5]; 0.26 in [6]; 0.32 in assay [7]. Further, the ELISA reading in [8] is 1.38; in [9], 0.12; in assay [10], 0.69; in [11] it was 6; in assay [12] it was 4.49; in assay [13], 0.34. The “VEGF-E-mediated Survival % Inhibition (Average)” value in assay [3] worked out at 2%. Also, the “VEGF-E-mediated Survival % Inhibition (n = 1)” value in assay [3] was -2%. Moreover, the “VEGF-E-mediated Survival % Inhibition (n = 2)” value in assay [3] is 6%.

B2: 21H9 (antibody, V domains shown)
VH: QVPLVESGGGVVQPGRSLRLSCAASGFTFSSYGMHWVRQAPGKGLEWVAVIWYDGSNKYYADSVQGRFTISRDNSKNTLYLQMNSLRAEDTAVYYCARGVTMVRGLIIARYYYGLDVWGQGTTVTVSS
VL: DIVMTQTPLSSPVTFGQPASISCRSSQSLVHSDGNTYLSWLQQRPGQPPRLLIYKISNRFFGVPDRFSGSGAGTDFTLKISRVEAEDVGLYYCMQSTQFPLTFGGGTKVEIK
notes: as for B1
Consider B2, for which the ELISA reading was 1.46 in assay [1]; 1.56 in assay [2]; 6 in [4]; 0.39 in assay [5]; 0.12 in assay [6]; 0.82 in [7]. The ELISA reading in assay [8] stood at 2.28; in [9], 0.22; in [10] it was 0.7; in [11], 4.34; in assay [12] it was 3.41; in assay [13] it was 0.26. Also, in [3], the “VEGF-E-mediated Survival % Inhibition (Average)” value was -1%. Also, the “VEGF-E-mediated Survival % Inhibition (n = 1)” value in [3] was -3%. Moreover, the “VEGF-E-mediated Survival % Inhibition (n = 2)” value in [3] amounted to 1%.

B3: 30D7 (antibody, V domains shown)
VH: B2 VH with Q65K, L106V
VL: B2 VL with F15L, S81G
notes: as for B1
On to B3, for which the ELISA reading in [1] turned out to be 1.51; in [2], 4.24; in [4], 4.66; in assay [5], 0.48; in assay [6], 0.82; in assay [7], 0.79. For the same molecule, the ELISA reading worked out at 2.93 in assay [8]; 0.27 in assay [9]; 2.79 in [10]; 5.09 in assay [11]; 6 in [12]; 1.02 in assay [13]. Also, the “VEGF-E-mediated Survival % Inhibition (Average)” value in [3] was -24%. For the same molecule, the “VEGF-E-mediated Survival % Inhibition (n = 1)” value in assay [3] is -27%. Besides, in assay [3], the “VEGF-E-mediated Survival % Inhibition (n = 2)” value is -22%.

B4: 22B8 (antibody, V domains shown)
VH: QLQLQESGPGLVKPSETLSLTCTVSGGSISSRYYYWGWVRQPPGKGLEWIGTIYYSGHTYYNPSLKTRVTISVDTSKNQFSLKLISVTAADTAVYYCATQQLVLYYFDFWGQGTLVTVSS
VL: EIVLTQSPGTLSLSPGERAALSCRASQSISSSYLAWYQQRPGQAPRLLIYGASSRATGIPDRFNGSGSGTDFTLTISRLEPEDFAVYYCQQFGSSITFGQGTRLEIK
notes: as for B1
On to B4, for which the ELISA reading amounted to 1.84 in [1]; 3.49 in assay [2]; 6 in [4]; 0.42 in assay [5]; 0.2 in assay [6]; 0.91 in assay [7]. Moreover, the ELISA reading in [8] worked out at 3.36; in [9], 0.21; in assay [10], 1.27; in [11], 6; in assay [12], 6; in assay [13], 0.31. In addition, the “VEGF-E-mediated Survival % Inhibition (Average)” value in [3] stood at 55%. For the same molecule, the “VEGF-E-mediated Survival % Inhibition (n = 1)” value in assay [3] came out at 57%. Moreover, the “VEGF-E-mediated Survival % Inhibition (n = 2)” value in [3] came to 53%.

B5: 30A1 (antibody, V domains shown)
VH: B4 VH with R32P, Y33N, V39I, H58N, Y60F, T67S, I85S
VL: B4 VL with E17K, R40K, F92L
notes: as for B1
Regarding B5, the ELISA reading in [1] was found to be 0.87; in [2] it was 4.28; in [4], 4.52; in assay [5], 0.27; in assay [6] it was 1.11; in assay [7], 0.5. Besides, the ELISA reading was determined as 1.77 in [8]; 0.15 in assay [9]; 3.37 in assay [10]; 4.78 in assay [11]; 6 in assay [12]; 1.58 in assay [13]. The “VEGF-E-mediated Survival % Inhibition (Average)” value in assay [3] stood at 58%. Moreover, the “VEGF-E-mediated Survival % Inhibition (n = 1)” value in [3] came to 58%. The “VEGF-E-mediated Survival % Inhibition (n = 2)” value in [3] amounted to 59%.

B6: 21A1 (antibody, V domains shown)
VH: QVQLVESGGGLVKPGGSLRLSCAASGFTFSDYYMSWIRQAPGKGLEWVSYISNSGITIYYADSVKGRFTISRDNAKNSLYLQMNSLRAGDTAVYYCAREEWYSSRWYRNFDYWGQGTLVTVSS
VL: DIQMTQFSSSLSASVGDRVTITCRASQSISRYLNWYQQKPGKAPKLLIYAASSLQSGVPSRFNGSGSGTDFTLTISSLQPEDFATYYCQQSYSAPLTFGGGTKVEIK
notes: as for B1
With B6, the ELISA reading in assay [1] came to 1.47; in assay [2], 3.36; in assay [4], 4.45; in assay [5] it was 0.38; in assay [6], 0.25; in assay [7] it was 0.81. In addition, the ELISA reading is 2.65 in assay [8]; 0.23 in [9]; 1.66 in assay [10]; 4.43 in assay [11]; 4.14 in [12]; 0.56 in assay [13]. Besides, the “VEGF-E-mediated Survival % Inhibition (Average)” value in assay [3] stood at 42%. Besides, the “VEGF-E-mediated Survival % Inhibition (n = 1)” value in assay [3] is 45%. Moreover, in assay [3], the “VEGF-E-mediated Survival % Inhibition (n = 2)” value was 40%.

B7: 21H6 (antibody, V domains shown)
VH: B6 VH
VL: B6 VL
notes: as for B1
As to B7, the ELISA reading in assay [1] was determined as 0.97; in [2], 4.02; in assay [4], 6; in assay [5], 0.23; in assay [6] it was 0.54; in assay [7] it was 0.52. Moreover, the ELISA reading in [8] came out at 1.83; in [9], 0.15; in [10], 2.91; in [11], 4.19; in [12], 5.57; in assay [13] it was 1.17. Moreover, in assay [3], the “VEGF-E-mediated Survival % Inhibition (Average)” value was found to be 55%. Besides, the “VEGF-E-mediated Survival % Inhibition (n = 1)” value in assay [3] stood at 56%. Also, the “VEGF-E-mediated Survival % Inhibition (n = 2)” value in assay [3] is 53%.

These data come from patent US20100260765A1 (AstraZeneca / MedImmune, published 2010).
